Laboratory results: patent US20170275357A1
Where two headings read alike, the source gives them in different places.

Legend:
[1] = target: IL-23 alanine shave mutant M10 (human) (UniProt P29460); experiment: cell-based or functional assay
[2] = target: IL-23 alanine shave mutant M7 (human) (UniProt P29460); experiment: cell-based or functional assay
[3] = target: IL-23 alanine shave mutant M9 (human) (UniProt P29460); experiment: cell-based or functional assay
[4] = target: wild-type IL-23 (His-tagged p19 / non-tagged p40) (human) (UniProt P29460); experiment: cell-based or functional assay
IL-23 D118A (human) [5] = target: IL-23 D118A (human) (UniProt P29460); experiment: cell-based or functional assay
IL-23 D55A (human) [6] = target: IL-23 D55A (human) (UniProt P29460); experiment: cell-based or functional assay
IL-23 E112A (human) [7] = target: IL-23 E112A (human) (UniProt P29460); experiment: cell-based or functional assay
IL-23 H53A (human) [8] = target: IL-23 H53A (human) (UniProt P29460); experiment: cell-based or functional assay
IL-23 L116A (human) [9] = target: IL-23 L116A (human) (UniProt P29460); experiment: cell-based or functional assay
IL-23 M54A (human) [10] = target: IL-23 M54A (human) (UniProt P29460); experiment: cell-based or functional assay
[11] = target: wild-type IL-23 (His-tagged p19 / non-tagged p40) (human) (UniProt P29460); experiment: cell-based or functional assay; remark: listed apart in the source
IL-23 D118A (human) [12] = target: IL-23 D118A (human) (UniProt P29460); experiment: SPR Biacore, antibody captured on protein A, single alanine mutants of IL-23
IL-23 D55A (human) [13] = target: IL-23 D55A (human) (UniProt P29460); experiment: as above
IL-23 E112A (human) [14] = target: IL-23 E112A (human) (UniProt P29460); experiment: as above
IL-23 H53A (human) [15] = target: IL-23 H53A (human) (UniProt P29460); experiment: as above
IL-23 L116A (human) [16] = target: IL-23 L116A (human) (UniProt P29460); experiment: as above
IL-23 M54A (human) [17] = target: IL-23 M54A (human) (UniProt P29460); experiment: as above
[18] = target: IL-23 alanine shave mutant M10 (human) (UniProt P29460); experiment: SPR Biacore T100, antibody captured on protein A, purified IL-23 variant, 1:1 Langmuir
[19] = target: IL-23 alanine shave mutant M5 (human) (UniProt P29460); experiment: as above
[20] = target: IL-23 alanine shave mutant M7 (human) (UniProt P29460); experiment: as above
[21] = target: IL-23 alanine shave mutant M9 (human) (UniProt P29460); experiment: as above
[22] = target: IL-23 alanine shave mutant M5 (human) (UniProt P29460); experiment: cell-based or functional assay

| Substance | IC50, IL-23 variant-induced pSTAT3 in BaF3/huIL-23Ra/huIL-12Rb1 transfectants [1] [pM] | IC50, IL-23 variant-induced pSTAT3 in BaF3/huIL-23Ra/huIL-12Rb1 transfectants [2] [pM] | IC50, IL-23 variant-induced pSTAT3 in BaF3/huIL-23Ra/huIL-12Rb1 transfectants [3] [pM] | IC50, IL-23 variant-induced pSTAT3 in BaF3/huIL-23Ra/huIL-12Rb1 transfectants [4] [pM] | IC50, IL-23 variant-induced pSTAT3 in BaF3/huIL-23Ra/huIL-12Rb1 transfectants (IL-23 D118A (human) [5]) [nM] | IC50, IL-23 variant-induced pSTAT3 in BaF3/huIL-23Ra/huIL-12Rb1 transfectants (IL-23 D55A (human) [6]) [nM] | IC50, IL-23 variant-induced pSTAT3 in BaF3/huIL-23Ra/huIL-12Rb1 transfectants (IL-23 E112A (human) [7]) [nM] | IC50, IL-23 variant-induced pSTAT3 in BaF3/huIL-23Ra/huIL-12Rb1 transfectants (IL-23 H53A (human) [8]) [nM] | IC50, IL-23 variant-induced pSTAT3 in BaF3/huIL-23Ra/huIL-12Rb1 transfectants (IL-23 L116A (human) [9]) [nM] | IC50, IL-23 variant-induced pSTAT3 in BaF3/huIL-23Ra/huIL-12Rb1 transfectants (IL-23 M54A (human) [10]) [nM] | IC50, IL-23 variant-induced pSTAT3 in BaF3/huIL-23Ra/huIL-12Rb1 transfectants [11] [nM] | ΔΔG (IL-23 D118A (human) [12]) [kcal/mol] | ΔΔG (IL-23 D55A (human) [13]) [kcal/mol] | ΔΔG (IL-23 E112A (human) [14]) [kcal/mol] | ΔΔG (IL-23 H53A (human) [15]) [kcal/mol] | ΔΔG (IL-23 L116A (human) [16]) [kcal/mol] | ΔΔG (IL-23 M54A (human) [17]) [kcal/mol] | ΔΔG [18] [kcal/mol] | ΔΔG [19] [kcal/mol] | ΔΔG [20] [kcal/mol] | further results |
| --- | --- | --- | --- | --- | --- | --- | --- | --- | --- | --- | --- | --- | --- | --- | --- | --- | --- | --- | --- | --- | --- |
| Merck's IL-23 p19 mAb (7G10) (antibody) | 350 | 310 | 260 | 380 | 0.22 | 0.18 | > 3 | 0.19 | 0.24 | 0.27 | 0.18 | -0.3 | 0.7 | 1.7 | 0 | 0.2 | 1 | 0.4 | 1.9 | 0.2 | ΔΔG [21]: 0.2 kcal/mol |
| STELARA (ustekinumab, IL-12/IL-23 p40 mAb) (antibody) | 71 | 59 | 67 | 79 | 0.052 | 0.077 | 0.033 | 0.078 | 0.054 | 0.081 | 0.067 | -0.3 | 0.5 | 0.3 | 0.3 | 0.5 | 0.3 | 0.3 | 0.1 | 0.1 | IC50, IL-23 variant-induced pSTAT3 in BaF3/huIL-23Ra/huIL-12Rb1 transfectants [22]: 62 pM; ΔΔG [21]: 0.1 kcal/mol |
